Laboratory results reported in the RNAGym collection of RNA variant scans (doi:10.1073/pnas.2313332121).

B1: TPR t1 (parent)
chain: GACCAAUCUGCCCUCAGAGCUCGAGAACAUCUUCGGAUGCAGAGGAGGCAGGCUUCGGUGGCGCGAUAGCGCCAACGUCCUCAACCUCCAAUGCAUCCCACCACAUGAUGAUGCCUGAAGAGCCUUGGUUUUUUG

Variants of: B1
Assay: polymerase ribozyme fitness, log enrichment relative to wild type (log ratio); higher = more active; in vitro selection for triplet polymerase activity
In short: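 For each subunit of a heterodimeric triplet polymerase ribozyme, a mutant library was built by PCR and transcribed, then taken through a single in vitro selection round in triplicate. Selection involved annealing to a biotinylated primer, the partner subunit and triplets, incubation frozen at −7 °C, gel excision of extended constructs, capture on streptavidin beads and RT-PCR. Genotypes were retained after Illumina sequencing of inputs and outputs only with ≥10 input reads and ≥1 read in each output. Fitness is defined as the logarithm of a genotype's enrichment relative to wild-type enrichment, using inverse-variance-weighted averages across replicates, with the logarithm taken to base 2.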

| Variant | polymerase ribozyme fitness (log ratio) |
| --- | --- |
| G51U C53G C124A U133A U134G | -1.64 |
| G51U C53U | -2.7 |
| G51U C53U C85A G93C | -5.05 |
| G51U C62A | -5.43 |
| G51U C62G | -5.98 |
| G51U C64A G69C | -3.5 |
| G51U C72A U106A | -3.24 |
| G51U C72U | -3.99 |
| G51U C73A G117A | -4.4 |
| G51U C80U C88A A119G | -1.11 |
| G51U C82A A95C C124U | -4.21 |
| G51U C82U | -1.77 |
| G51U C85U | -4.37 |
| G51U C88U G113C | -5.71 |
| G51U C89A | -5.25 |
| G51U C94A U133G | -3.88 |
| G51U C97U U132A | -2.51 |
| G51U G60A C124U | -4.52 |
| G51U G60C | -2.36 |
| G51U G60U G69C C73G | -4.99 |
| G51U G61A C64U U125G | -6.13 |

| Variant | polymerase ribozyme fitness (log ratio) |
| --- | --- |
| G51U G61C | -3.56 |
| G51U G71A A90G C98G C114A C123U | -6.6 |
| G51U G110A | -5.3 |
| G51U G110A U132A | -5.7 |
| G51U G120C U133G | -1.86 |
| G51U G127A | -4.52 |
| G51U U55G C102U | -6.73 |
| G51U U59G G63C G77C C80U U87C C124G U131G | -0.602 |
| G51U U78G U112C C123A U130A | -3.11 |
| G51U U87A G107U C115A A121U | -7.71 |
| G52A | -0.286 |
| G52A A90G G93U U112C A119C | -1.55 |
| G52A A95C G113C | -3.3 |
| G52A C53A G77A A84U G122A | -2.24 |
| G52A C56G U96G | -1.35 |
| G52A C62U | -0.528 |
| G52A C64A C101A C115A | -6.42 |
| G52A C70U | -0.605 |
| G52A C70U C86U C94A A100C C101U C114G | -5.67 |
| G52A C70U G77A U78G C79U G117U | -3.69 |
| G52A C72G | -0.491 |

| Variant | polymerase ribozyme fitness (log ratio) |
| --- | --- |
| G52A C76U | -0.303 |
| G52A C80U | -1.94 |
| G52A C82U | -0.917 |
| G52A G57A A66U G127C | -3.31 |
| G52A G57A G127C | -2.09 |
| G52A G57C | -0.388 |
| G52A G60U | -2.42 |
| G52A G61C | -4.29 |
| G52A G69A G93U C123U | -3.78 |
| G52A G69C C72U A95C | -1.66 |
| G52A G69C C85A G122A U133A | -4.36 |
| G52A G69U G71U C102A | -4.53 |
| G52A G71A U96G | -1.57 |
| G52A G113A | -1.37 |
| G52A G120U | -0.416 |
| G52A U55A A74U G120C C123A C124U G135A | -0.0228 |
| G52A U55A G61A C97U C101G U125G | -2.53 |
| G52A U55A G120C C123A C124U G135A | 1.07 |
| G52C | -0.632 |
| G52C A83G | -1.31 |
| G52C A95G G120C U125A | -0.335 |

| Variant | polymerase ribozyme fitness (log ratio) |
| --- | --- |
| G52C C53G G120U | -2.13 |
| G52C C62U C72A C82U A119U | -1.34 |
| G52C C70A G110C | -6.64 |
| G52C C72A C94U G128A | -2.33 |
| G52C C72A U78C | 0.275 |
| G52C C73G C82A | -1.97 |
| G52C C79G | -0.316 |
| G52C C82A U112G | -1.29 |
| G52C C85U G117C | -5.83 |
| G52C C86A C114U G120U | -5.89 |
| G52C C115A A118U U131A | -2.68 |
| G52C C123G | 0.381 |
| G52C C124U | 1.26 |
| G52C G57C C79G C86U C115U | -1.83 |
| G52C G58A | -1.15 |
| G52C G58A C79A C85U | -2.78 |
| G52C G60U | -1.44 |
| G52C G61A C62U C85U U96G G117A | -4.79 |
| G52C G61C C114G G120U | -5.46 |
| G52C G63A C102U C104A | -3.27 |
